Measured values reported in publication PMC9482650, “Quantitative fragmentomics allow affinity mapping of interactomes” (Nature Communications, 2022).

Legend:
Test in all cases: holdup assay
Set-up in all cases: key: below the threshold = too weak to quantify, mostly under pKd 3.1 to 4
Conditions in all cases: plain residues with an end cap or a label only (N-terminal biotin on a linker: ado-ado)
DLG5_1, Q8TDM6 = biological target: DLG5_1, Q8TDM6
MAGI2_2, Q86UL8 = biological target: MAGI2_2, Q86UL8
Inadl_5, Q8NI35 = biological target: Inadl_5, Q8NI35
DLG1_2, Q12959 = biological target: DLG1_2, Q12959
PARD3B_1, Q8TEW8 = biological target: T1, PARD3B_1, Q8TEW8
T1 sequence (Q8TEW8 196-299, limits assumed, looked up): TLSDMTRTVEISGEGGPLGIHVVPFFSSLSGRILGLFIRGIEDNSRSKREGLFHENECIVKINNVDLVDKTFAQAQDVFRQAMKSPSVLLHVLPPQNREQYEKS

SIPA1L2, Q9P2F8 = biological target: T2, SIPA1L2, Q9P2F8
T2 sequence (Q9P2F8 945-1036, limits assumed, looked up): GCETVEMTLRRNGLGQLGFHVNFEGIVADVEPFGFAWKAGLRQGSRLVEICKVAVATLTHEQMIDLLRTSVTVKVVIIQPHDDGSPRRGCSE

ARHGEF11, O15085 = biological target: T3, ARHGEF11, O15085
T3 sequence (O15085 42-136, limits assumed, looked up): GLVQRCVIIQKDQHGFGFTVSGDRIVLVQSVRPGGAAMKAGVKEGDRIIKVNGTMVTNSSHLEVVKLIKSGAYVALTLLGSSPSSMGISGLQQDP

MPP2, Q14168 = biological target: T4, MPP2, Q14168
T4 sequence (Q14168 180-250, limits assumed, looked up): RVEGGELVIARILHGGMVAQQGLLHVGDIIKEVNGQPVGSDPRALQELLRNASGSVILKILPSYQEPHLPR

SNTG2, Q9NY99 = biological target: T5, SNTG2, Q9NY99
T5 sequence (Q9NY99 68-166, limits assumed, looked up): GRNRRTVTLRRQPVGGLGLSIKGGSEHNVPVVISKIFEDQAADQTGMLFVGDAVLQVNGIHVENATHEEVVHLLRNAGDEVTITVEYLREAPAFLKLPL

GRIP2_7, Q9C0E4 = biological target: GRIP2_7, Q9C0E4
TJP3_3, O95049 = biological target: T6, TJP3_3, O95049
T6 sequence (O95049 375-456, limits assumed, looked up): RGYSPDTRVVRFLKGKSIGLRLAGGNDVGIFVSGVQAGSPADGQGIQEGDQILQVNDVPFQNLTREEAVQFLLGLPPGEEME

FRMPD2_1, Q68DX3 = biological target: FRMPD2_1, Q68DX3
DFNB31_1, Q9P202 = biological target: T7, DFNB31_1, Q9P202
T7 sequence (Q9P202 135-233, limits assumed, looked up): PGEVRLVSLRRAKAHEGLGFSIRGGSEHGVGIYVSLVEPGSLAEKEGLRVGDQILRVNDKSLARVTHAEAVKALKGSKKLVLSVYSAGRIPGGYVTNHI

TJP1_2, Q07157 = biological target: TJP1_2, Q07157
MAST1, Q9Y2H9 = biological target: MAST1, Q9Y2H9
MAGI2_4, Q86UL8 = biological target: MAGI2_4, Q86UL8
FRMPD3, Q5JV73 = biological target: FRMPD3, Q5JV73
TJP2_1, Q9UDY2 = biological target: TJP2_1, Q9UDY2
GIPC2, Q8TF65 = biological target: GIPC2, Q8TF65
MAGI1_2, Q96QZ7 = biological target: MAGI1_2, Q96QZ7
GRIP1_3, Q9Y3R0 = biological target: T8, GRIP1_3, Q9Y3R0
T8 sequence (Q9Y3R0 247-346, limits assumed, looked up): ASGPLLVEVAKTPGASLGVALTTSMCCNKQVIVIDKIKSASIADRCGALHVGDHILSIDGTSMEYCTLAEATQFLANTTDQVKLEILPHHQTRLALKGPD

LIN7C, Q9NUP9 = biological target: T9, LIN7C, Q9NUP9
T9 sequence (Q9NUP9 88-185, limits assumed, looked up): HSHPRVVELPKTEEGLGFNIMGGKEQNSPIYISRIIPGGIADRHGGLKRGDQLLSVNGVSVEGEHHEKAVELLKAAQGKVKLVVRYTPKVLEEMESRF

LNX2_3, Q8N448 = biological target: T10, LNX2_3, Q8N448
T10 sequence (Q8N448 463-564, limits assumed, looked up): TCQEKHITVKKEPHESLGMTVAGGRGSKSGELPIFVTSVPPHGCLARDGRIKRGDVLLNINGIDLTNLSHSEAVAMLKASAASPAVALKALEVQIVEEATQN

CASK, O14936 = biological target: CASK, O14936
DFNB31_2, Q9P202 = biological target: T11, DFNB31_2, Q9P202
T11 sequence (Q9P202 274-371, limits assumed, looked up): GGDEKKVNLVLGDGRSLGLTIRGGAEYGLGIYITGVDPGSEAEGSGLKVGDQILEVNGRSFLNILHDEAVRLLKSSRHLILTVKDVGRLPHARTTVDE

RADIL, Q96JH8 = biological target: T12, RADIL, Q96JH8
T12 sequence (Q96JH8 971-1071, limits assumed, looked up): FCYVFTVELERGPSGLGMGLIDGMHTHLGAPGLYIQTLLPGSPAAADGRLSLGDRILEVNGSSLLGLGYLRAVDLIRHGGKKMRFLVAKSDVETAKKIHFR

CASK, O14936, sequence (O14936 487-570): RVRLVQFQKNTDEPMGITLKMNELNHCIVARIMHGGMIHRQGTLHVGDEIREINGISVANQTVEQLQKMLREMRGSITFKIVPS
MAST1, Q9Y2H9, sequence (Q9Y2H9 962-1065): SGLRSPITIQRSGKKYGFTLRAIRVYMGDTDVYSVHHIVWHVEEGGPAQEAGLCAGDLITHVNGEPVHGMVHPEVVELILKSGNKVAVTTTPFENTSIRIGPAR
DLG5_1, Q8TDM6, sequence (Q8TDM6 617-713): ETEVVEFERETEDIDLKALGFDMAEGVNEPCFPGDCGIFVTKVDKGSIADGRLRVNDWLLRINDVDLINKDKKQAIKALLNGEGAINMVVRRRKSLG
MAGI2_4, Q86UL8, sequence (Q86UL8 772-865): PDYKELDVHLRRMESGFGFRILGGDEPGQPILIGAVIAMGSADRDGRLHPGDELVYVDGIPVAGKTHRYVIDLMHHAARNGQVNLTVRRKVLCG
DLG1_2, Q12959, sequence (Q12959 314-412): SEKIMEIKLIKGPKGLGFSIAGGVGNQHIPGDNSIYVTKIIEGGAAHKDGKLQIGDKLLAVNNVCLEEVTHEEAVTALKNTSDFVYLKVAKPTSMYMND
MAGI2_2, Q86UL8, sequence (Q86UL8 410-522): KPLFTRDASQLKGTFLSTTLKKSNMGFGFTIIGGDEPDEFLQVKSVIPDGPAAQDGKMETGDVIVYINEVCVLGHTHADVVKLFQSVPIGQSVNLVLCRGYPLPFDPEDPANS
FRMPD2_1, Q68DX3, sequence (Q68DX3 770-861): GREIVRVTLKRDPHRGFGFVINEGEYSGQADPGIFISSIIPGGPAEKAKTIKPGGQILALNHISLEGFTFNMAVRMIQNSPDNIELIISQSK
TJP2_1, Q9UDY2, sequence (Q9UDY2 24-128): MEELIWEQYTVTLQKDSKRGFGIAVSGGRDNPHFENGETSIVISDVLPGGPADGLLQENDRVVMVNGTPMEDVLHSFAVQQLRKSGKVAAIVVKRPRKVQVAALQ
TJP1_2, Q07157, sequence (Q07157 181-274): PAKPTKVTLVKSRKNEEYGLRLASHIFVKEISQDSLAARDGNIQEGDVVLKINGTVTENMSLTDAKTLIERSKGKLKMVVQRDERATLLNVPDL
FRMPD3, Q5JV73, sequence (Q5JV73 12-100): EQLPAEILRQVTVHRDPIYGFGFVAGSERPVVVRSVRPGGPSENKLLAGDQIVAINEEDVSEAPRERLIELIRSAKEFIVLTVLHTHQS
Inadl_5, Q8NI35, sequence (Q8NI35 673-780): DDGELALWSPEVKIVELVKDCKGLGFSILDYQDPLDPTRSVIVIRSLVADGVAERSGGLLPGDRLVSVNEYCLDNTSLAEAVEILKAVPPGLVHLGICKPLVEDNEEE
MAGI1_2, Q96QZ7, sequence (Q96QZ7 456-580): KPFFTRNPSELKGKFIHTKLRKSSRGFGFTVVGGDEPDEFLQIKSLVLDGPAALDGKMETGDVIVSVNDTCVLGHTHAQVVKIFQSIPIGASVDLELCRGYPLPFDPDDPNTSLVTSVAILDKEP
GRIP2_7, Q9C0E4, sequence (Q9C0E4 934-1023): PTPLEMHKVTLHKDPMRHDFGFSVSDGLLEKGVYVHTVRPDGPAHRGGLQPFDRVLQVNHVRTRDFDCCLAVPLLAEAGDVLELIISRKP
GIPC2, Q8TF65, sequence (Q8TF65 112-203): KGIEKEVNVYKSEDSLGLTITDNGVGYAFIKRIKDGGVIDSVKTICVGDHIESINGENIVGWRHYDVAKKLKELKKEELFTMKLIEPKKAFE

Binder: EKCGKEFSEF [PRKACA, P17612]
- pKd (DLG5_1, Q8TDM6): below the threshold
- pKd (MAGI2_2, Q86UL8): below the threshold
- pKd (Inadl_5, Q8NI35): below the threshold
- pKd (DLG1_2, Q12959): 3.52
- pKd (PARD3B_1, Q8TEW8): 3.91
- pKd (SIPA1L2, Q9P2F8): below the threshold
- pKd (ARHGEF11, O15085): below the threshold
- pKd (MPP2, Q14168): below the threshold
- pKd (SNTG2, Q9NY99): below the threshold
- pKd (GRIP2_7, Q9C0E4): below the threshold
- pKd (TJP3_3, O95049): below the threshold
- pKd (FRMPD2_1, Q68DX3): below the threshold
- pKd (DFNB31_1, Q9P202): below the threshold
- pKd (TJP1_2, Q07157): below the threshold
- pKd (MAST1, Q9Y2H9): 4.21
- pKd (MAGI2_4, Q86UL8): 3.62
- pKd (FRMPD3, Q5JV73): below the threshold
- pKd (TJP2_1, Q9UDY2): below the threshold
- pKd (GIPC2, Q8TF65): below the threshold
- pKd (MAGI1_2, Q96QZ7): below the threshold
- pKd (GRIP1_3, Q9Y3R0): below the threshold
- pKd (LIN7C, Q9NUP9): below the threshold
- pKd (LNX2_3, Q8N448): below the threshold
- pKd (CASK, O14936): below the threshold
- pKd (DFNB31_2, Q9P202): below the threshold
- pKd (RADIL, Q96JH8): below the threshold

Binder: QLSFNTDTLC [ABCA2, Q9BZC7]
- pKd (DLG5_1, Q8TDM6): below the threshold
- pKd (MAGI2_2, Q86UL8): below the threshold
- pKd (Inadl_5, Q8NI35): below the threshold
- pKd (DLG1_2, Q12959): 3.88
- pKd (PARD3B_1, Q8TEW8): 3.67
- pKd (SIPA1L2, Q9P2F8): below the threshold
- pKd (ARHGEF11, O15085): below the threshold
- pKd (MPP2, Q14168): below the threshold
- pKd (SNTG2, Q9NY99): below the threshold
- pKd (GRIP2_7, Q9C0E4): below the threshold
- pKd (TJP3_3, O95049): below the threshold
- pKd (FRMPD2_1, Q68DX3): below the threshold
- pKd (DFNB31_1, Q9P202): below the threshold
- pKd (TJP1_2, Q07157): below the threshold
- pKd (MAST1, Q9Y2H9): 4.16
- pKd (MAGI2_4, Q86UL8): 4.17
- pKd (FRMPD3, Q5JV73): below the threshold
- pKd (TJP2_1, Q9UDY2): below the threshold
- pKd (GIPC2, Q8TF65): below the threshold
- pKd (MAGI1_2, Q96QZ7): below the threshold
- pKd (GRIP1_3, Q9Y3R0): below the threshold
- pKd (LIN7C, Q9NUP9): below the threshold
- pKd (LNX2_3, Q8N448): below the threshold
- pKd (CASK, O14936): below the threshold
- pKd (DFNB31_2, Q9P202): below the threshold
- pKd (RADIL, Q96JH8): 3.49

Binder: EDLEDEWEVI [TECPR2, O15040]
- pKd (DLG5_1, Q8TDM6): below the threshold
- pKd (MAGI2_2, Q86UL8): below the threshold
- pKd (Inadl_5, Q8NI35): below the threshold
- pKd (DLG1_2, Q12959): below the threshold
- pKd (PARD3B_1, Q8TEW8): 4.3
- pKd (SIPA1L2, Q9P2F8): below the threshold
- pKd (ARHGEF11, O15085): below the threshold
- pKd (MPP2, Q14168): below the threshold
- pKd (SNTG2, Q9NY99): below the threshold
- pKd (GRIP2_7, Q9C0E4): below the threshold
- pKd (TJP3_3, O95049): below the threshold
- pKd (FRMPD2_1, Q68DX3): below the threshold
- pKd (DFNB31_1, Q9P202): below the threshold
- pKd (TJP1_2, Q07157): below the threshold
- pKd (MAST1, Q9Y2H9): 3.68
- pKd (MAGI2_4, Q86UL8): below the threshold
- pKd (FRMPD3, Q5JV73): below the threshold
- pKd (TJP2_1, Q9UDY2): below the threshold
- pKd (GIPC2, Q8TF65): below the threshold
- pKd (MAGI1_2, Q96QZ7): below the threshold
- pKd (GRIP1_3, Q9Y3R0): below the threshold
- pKd (LIN7C, Q9NUP9): below the threshold
- pKd (LNX2_3, Q8N448): below the threshold
- pKd (CASK, O14936): below the threshold
- pKd (DFNB31_2, Q9P202): below the threshold
- pKd (RADIL, Q96JH8): below the threshold
